How the values were obtained:
Assay in all cases: co-IP
[1] = biological target: PfGAPM2-GFP (P. falciparum) (UniProt Q8IFN1)
[2] = biological target: PfGAPM1-HA (P. falciparum) (UniProt Q8IE80)
[3] = biological target: PfGAPM3-HA (P. falciparum)

Row | Substance | percent of the total ALV in the sample that was precipitated [1] [%] | percent of the total ALV in the sample that was precipitated [2] [%] | percent of the total ALV in the sample that was precipitated [3] [%] | percent of the protein in the sample that was precipitated [3] [%] | percent of the protein in the sample that was precipitated [1] [%] | percent of the protein in the sample that was precipitated [2] [%]
1 | PfALV4 (natural protein) | 26 | 17 | 16 | – | – | –
2 | PfGAP45 (from UniProt Q8I5I8 1-204) (natural protein) | – | – | – | < 10 | – | –
3 | PfGAP50 (natural protein) | – | – | – | < 10 | < 10 | < 10

Reference: article PMC2757237
